# Reference: IntAct's records for PubMed 7877691
# B1: Retinoblastoma-associated protein (Homo sapiens), P06400 (parent)
# chain: MPPKTPRKTAATAAAAAAEPPAPPPPPPPEEDPEQDSGPEDLPLVRLEFEETEEPDFTALCQKLKIPDHVRERAWLTWEKVSSVDGVLGGYIQKKKELWGICIFIAAVDLDEMSFTFTELQKNIEISVHKFFNLLKEIDTSTKVDNAMSRLLKKYDVLFALFSKLERTCELIYLTQPSSSISTEINSALVLKVSWITFLLAKGEVLQMEDDLVISFQLMLCVLDYFIKLSPPMLLKEPYKTAVIPINGSPRTPRRGQNRSARIAKQLENDTRIIEVLCKEHECNIDEVKNVYFKNFIPFMNSLGLVTSNGLPEVENLSKRYEEIYLKNKDLDARLFLDHDKTLQTDSIDSFETQRTPRKSNLDEEVNVIPPHTPVRTVMNTIQQLMMILNSASDQPSENLISYFNNCTVNPKESILKRVKDIGYIFKEKFAKAVGQGCVEIGSQRYKLGVRLYYRVMESMLKSEEERLSIQNFSKLLNDNIFHMSLLACALEVVMATYSRSTSQNLDSGTDLSFPWILNVLNLKAFDFYKVIESFIKAEGNLTREMIKHLERCEHRIMESLAWLSDSPLFDLIKQSKDREGPTDHLESACPLNLPLQNNHTAADMYLSPVRSPKKKGSTTRVNSTANAETQATSAFQTQKPLKSTSLSLFYKKVYRLAYLRLNTLCERLLSEHPELEHIIWTLFQHTLQNEYELMRDRHLDQIMMCSMYGICKVKNIDLKFKIIVTAYKDLPHAVQETFKRVLIKEEEYDSIIVFYNSVFMQRLKTNILQYASTRPPTLSPIPHIPRSPYKFPSSPLRIPGGNIYISPLKSPYKISEGLPTPTKMTPRSRILVSIGESFGTSEKFQKINQMVCNSDRVLKRSAEGSNPPKPLKKLRFDIEGSDEADGSKHLPGESKFQQKLAEMTSTRTRMQKQKMNDSMDTSNKEEK
# partner: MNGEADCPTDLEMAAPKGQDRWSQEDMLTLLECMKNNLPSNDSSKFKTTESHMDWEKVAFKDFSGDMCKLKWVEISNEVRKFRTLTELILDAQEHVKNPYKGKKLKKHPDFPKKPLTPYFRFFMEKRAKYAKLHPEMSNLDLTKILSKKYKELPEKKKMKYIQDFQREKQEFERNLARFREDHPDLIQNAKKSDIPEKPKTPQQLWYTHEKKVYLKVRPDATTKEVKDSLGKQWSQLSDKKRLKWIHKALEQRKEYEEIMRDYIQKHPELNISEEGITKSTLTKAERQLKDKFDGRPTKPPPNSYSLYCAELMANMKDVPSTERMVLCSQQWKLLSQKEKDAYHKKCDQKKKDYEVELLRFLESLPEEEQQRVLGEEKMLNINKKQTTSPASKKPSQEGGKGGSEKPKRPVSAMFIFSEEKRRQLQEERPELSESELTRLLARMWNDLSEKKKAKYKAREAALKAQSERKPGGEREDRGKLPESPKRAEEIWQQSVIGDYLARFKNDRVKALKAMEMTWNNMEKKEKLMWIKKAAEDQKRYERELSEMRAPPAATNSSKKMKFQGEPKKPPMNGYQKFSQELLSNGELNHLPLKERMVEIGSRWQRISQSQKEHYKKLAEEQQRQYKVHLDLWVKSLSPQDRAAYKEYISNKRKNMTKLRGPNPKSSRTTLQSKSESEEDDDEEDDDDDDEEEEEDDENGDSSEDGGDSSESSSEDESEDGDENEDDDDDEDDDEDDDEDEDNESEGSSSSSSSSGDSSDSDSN
# Variants of: B1
# Conditions: with ubf1_rat Ubtf
row,Variant,effect of a mutation on the interaction
1,C706F,disrupting interaction
